Values quoted from earlier work, collected in PMC2848813.

Molecular target: Hsp33 (Escherichia coli) (UniProt P0A6Y5)

Kd: 0.6 µM
Substance: Hsp33 (from UniProt P0A6Y5)
